Test results: patent US20190169246A1

These substances were tested against ApoER2 of primary neuronal culture from embryonic day 17 mice (mouse) (UniProt Q924X6) (assay: cell-based or functional assay).
Chain of ApoER2 of primary neuronal culture from embryonic day 17 mice (mouse) (Q924X6 29-996): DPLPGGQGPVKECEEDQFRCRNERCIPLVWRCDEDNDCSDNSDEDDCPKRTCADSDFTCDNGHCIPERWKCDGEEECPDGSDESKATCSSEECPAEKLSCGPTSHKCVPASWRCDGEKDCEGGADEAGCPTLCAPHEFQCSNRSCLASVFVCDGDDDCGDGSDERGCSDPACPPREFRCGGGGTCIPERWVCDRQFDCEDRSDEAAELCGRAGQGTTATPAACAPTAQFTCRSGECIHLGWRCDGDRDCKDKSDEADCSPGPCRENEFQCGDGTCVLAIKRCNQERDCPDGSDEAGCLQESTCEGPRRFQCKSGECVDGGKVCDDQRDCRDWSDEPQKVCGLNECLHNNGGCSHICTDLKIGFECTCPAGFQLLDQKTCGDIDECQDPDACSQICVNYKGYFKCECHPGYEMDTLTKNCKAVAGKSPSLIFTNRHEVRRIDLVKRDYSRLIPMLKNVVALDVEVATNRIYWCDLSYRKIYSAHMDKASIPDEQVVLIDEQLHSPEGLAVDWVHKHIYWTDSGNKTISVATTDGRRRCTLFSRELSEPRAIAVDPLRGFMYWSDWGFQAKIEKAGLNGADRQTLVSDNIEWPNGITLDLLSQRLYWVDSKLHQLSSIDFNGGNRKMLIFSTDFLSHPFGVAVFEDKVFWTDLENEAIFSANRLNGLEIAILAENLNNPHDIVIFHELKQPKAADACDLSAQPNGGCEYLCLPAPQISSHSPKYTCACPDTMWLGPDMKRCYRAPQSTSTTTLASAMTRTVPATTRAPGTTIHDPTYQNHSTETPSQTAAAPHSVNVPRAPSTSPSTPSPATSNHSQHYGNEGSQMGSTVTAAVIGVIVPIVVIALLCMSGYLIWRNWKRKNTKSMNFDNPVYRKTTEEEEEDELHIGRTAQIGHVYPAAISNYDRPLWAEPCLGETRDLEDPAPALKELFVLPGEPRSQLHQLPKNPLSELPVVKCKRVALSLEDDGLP

Row | Substance | levels of phosphorylated ERK to total ERK, primary neurons, 60 minutes (ratio pERK/total ERK)
1 | Recombinant, human Reelin protein, R3 fragment conjugated to the R6 fragment (Reelin protein fragment R3+R6) (from UniProt P78509 1-2618) (ligand) | 2
2 | mouse Reelin repeats R3 through 6 (from UniProt Q60841 1222-2661) (ligand) | 1.15
3 | Recombinant, human Reelin protein, R3 fragment conjugated to the R5 fragment (Reelin protein fragment R3+R5) (from UniProt P78509 1-2270) (ligand) | 2.22
4 | full length Reelin consisting of the full length sequence and all of the naturally occurring fragments (ligand) | 2.5
5 | mouse Reelin N terminal through repeat R2 (from UniProt Q60841 27-1221) (ligand) | 0.53
